Results published in paper PMC8552302 (Journal of medicinal chemistry, 2021).

Tests used:
[1] = rhesus monkey, in vivo; cited from earlier work
mMC3R = mMC3R (Mus musculus, UniProt P33033); assay: β-galactosidase cAMP reporter agonist assay, mMC3R; settings: read-out: efficacy at the mMC3R compared to the maximal response of α-MSH
Sequence of mMC3R (P33033 whole entry): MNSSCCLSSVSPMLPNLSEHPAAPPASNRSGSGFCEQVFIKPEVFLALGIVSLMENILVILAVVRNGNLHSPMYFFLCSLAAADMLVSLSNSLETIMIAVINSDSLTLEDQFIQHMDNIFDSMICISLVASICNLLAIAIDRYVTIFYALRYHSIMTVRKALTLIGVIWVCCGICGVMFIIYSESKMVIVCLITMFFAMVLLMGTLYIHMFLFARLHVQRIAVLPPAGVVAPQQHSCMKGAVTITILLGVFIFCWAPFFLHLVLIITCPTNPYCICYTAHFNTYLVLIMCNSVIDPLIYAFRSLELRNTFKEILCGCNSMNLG

Row | Compound | effect on heart rate and blood pressure [1] | Emax (mMC3R)
1 | Ac-DArg-c[Cys-Glu-His-DPhe-Arg-Trp-Cys-NH2 [LY2112688] | significantly increased heart rate and blood pressure | 
2 | O=C(NC(Cc1ccc(Cl)cc1)C(=O)N1CCC(Cn2cncn2)(C2CCCCC2)CC1)[C@H]1Cc2ccccc2CN1 (stereo in doubt) [THIQ, N-[(3R)-1,2,3,4-tetrahydroisoquinolinium-3-ylcarbonyl]-(1R)-1-(4-chlorobenzyl)2-[4-cyclohexyl-4-(1H-1,2,4-triazol-1-ylmethyl)piperidin-1-yl]-2-oxoethylamine] |  | 90 to 95%
